Source: publication PMC9482650, “Quantitative fragmentomics allow affinity mapping of interactomes” (Nature Communications, 2022)

T1: APBA3_1, O96018
T1 sequence (O96018 389-490, limits assumed, looked up): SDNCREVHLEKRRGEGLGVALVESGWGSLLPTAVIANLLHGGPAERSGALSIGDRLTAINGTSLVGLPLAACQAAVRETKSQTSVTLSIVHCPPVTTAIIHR

T2: DLG3_1, Q92796
T2 sequence (Q92796 125-227, limits assumed, looked up): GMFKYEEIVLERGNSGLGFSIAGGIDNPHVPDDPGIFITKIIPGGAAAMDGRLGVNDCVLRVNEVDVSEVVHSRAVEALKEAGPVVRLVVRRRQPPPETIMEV

T3: DVL3, Q92997
T3 sequence (Q92997 244-331, limits assumed, looked up): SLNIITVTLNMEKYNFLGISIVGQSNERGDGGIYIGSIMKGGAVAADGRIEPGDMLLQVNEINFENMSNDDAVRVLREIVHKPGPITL

T4: TJP3_3, O95049
T4 sequence (O95049 375-456, limits assumed, looked up): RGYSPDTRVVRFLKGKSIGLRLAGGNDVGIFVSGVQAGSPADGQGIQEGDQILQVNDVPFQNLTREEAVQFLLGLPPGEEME

T5: PDZD7_3, Q9H5P4
T5 sequence (Q9H5P4 857-944, limits assumed, looked up): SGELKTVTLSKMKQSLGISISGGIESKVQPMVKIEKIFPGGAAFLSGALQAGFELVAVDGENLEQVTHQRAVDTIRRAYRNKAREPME

T6: APBA2_2, Q99767
T6 sequence (Q99767 654-744, limits assumed, looked up): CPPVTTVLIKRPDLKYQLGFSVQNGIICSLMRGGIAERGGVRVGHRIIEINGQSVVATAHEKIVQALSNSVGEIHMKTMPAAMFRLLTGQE

T7: SNTA1, Q13424
T7 sequence (Q13424 82-180, limits assumed, looked up): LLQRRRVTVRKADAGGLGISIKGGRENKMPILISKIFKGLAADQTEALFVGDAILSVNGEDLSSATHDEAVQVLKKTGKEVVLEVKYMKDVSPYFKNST

T8: SNTB1, Q13884
T8 sequence (Q13884 107-205, limits assumed, looked up): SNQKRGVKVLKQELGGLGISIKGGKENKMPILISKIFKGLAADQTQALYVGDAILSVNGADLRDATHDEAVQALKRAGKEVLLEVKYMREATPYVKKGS

T9: SYNJ2BP, P57105
T9 sequence (P57105 8-110, limits assumed, looked up): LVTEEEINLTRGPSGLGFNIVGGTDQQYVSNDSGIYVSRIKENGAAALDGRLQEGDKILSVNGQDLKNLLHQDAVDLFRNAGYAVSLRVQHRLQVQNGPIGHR

T10: SIPA1L2, Q9P2F8
T10 sequence (Q9P2F8 945-1036, limits assumed, looked up): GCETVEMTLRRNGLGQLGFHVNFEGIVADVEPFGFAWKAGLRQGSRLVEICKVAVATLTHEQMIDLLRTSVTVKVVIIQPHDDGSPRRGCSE

T11: CARD11, Q9BXL7
T11 sequence (Q9BXL7 662-765, limits assumed, looked up): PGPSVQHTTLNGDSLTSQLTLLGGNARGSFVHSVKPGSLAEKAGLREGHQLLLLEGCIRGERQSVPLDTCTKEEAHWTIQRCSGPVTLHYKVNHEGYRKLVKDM

T12: GRIP1_5, Q9Y3R0
T12 sequence (Q9Y3R0 568-668, limits assumed, looked up): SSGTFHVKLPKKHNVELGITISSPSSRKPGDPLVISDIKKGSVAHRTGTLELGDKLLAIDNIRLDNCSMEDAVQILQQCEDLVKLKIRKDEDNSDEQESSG

T13: SHANK1, Q9Y566
T13 sequence (Q9Y566 658-767, limits assumed, looked up): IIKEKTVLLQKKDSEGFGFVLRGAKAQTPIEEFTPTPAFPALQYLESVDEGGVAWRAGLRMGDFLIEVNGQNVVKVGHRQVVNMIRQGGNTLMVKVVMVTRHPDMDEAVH


Assays:
Assay in all cases: holdup assay
Parameters in all cases: key: below the threshold = too weak to quantify, mostly under pKd 3.1 to 4
Details in all cases: plain residues with an end cap or a label only (N-terminal biotin on a linker: ado-ado)
MAGI2_5, Q86UL8 = target: MAGI2_5, Q86UL8
APBA3_1, O96018 = target: T1, APBA3_1, O96018
DLG3_1, Q92796 = target: T2, DLG3_1, Q92796
DVL3, Q92997 = target: T3, DVL3, Q92997
Inadl_6, Q8NI35 = target: Inadl_6, Q8NI35
SCRIB_2, Q14160 = target: SCRIB_2, Q14160
TJP3_3, O95049 = target: T4, TJP3_3, O95049
PDZD7_3, Q9H5P4 = target: T5, PDZD7_3, Q9H5P4
HTRA1, Q92743 = target: HTRA1, Q92743
GRIP2_4, Q9C0E4 = target: GRIP2_4, Q9C0E4
MAGI2_6, Q86UL8 = target: MAGI2_6, Q86UL8
APBA2_2, Q99767 = target: T6, APBA2_2, Q99767
SNTA1, Q13424 = target: T7, SNTA1, Q13424
MAST1, Q9Y2H9 = target: MAST1, Q9Y2H9
PDLIM1, O00151 = target: PDLIM1, O00151
SNTB1, Q13884 = target: T8, SNTB1, Q13884
SYNJ2BP, P57105 = target: T9, SYNJ2BP, P57105
SIPA1L2, Q9P2F8 = target: T10, SIPA1L2, Q9P2F8
GRID2IP_2, A4D2P6 = target: GRID2IP_2, A4D2P6
CARD11, Q9BXL7 = target: T11, CARD11, Q9BXL7
GRIP1_5, Q9Y3R0 = target: T12, GRIP1_5, Q9Y3R0
SHANK1, Q9Y566 = target: T13, SHANK1, Q9Y566
DLG1_1, Q12959 = target: DLG1_1, Q12959
DLG5_1, Q8TDM6 = target: DLG5_1, Q8TDM6
Inadl_4, Q8NI35 = target: Inadl_4, Q8NI35
Sequence of Inadl_4, Q8NI35 (Q8NI35 547-651): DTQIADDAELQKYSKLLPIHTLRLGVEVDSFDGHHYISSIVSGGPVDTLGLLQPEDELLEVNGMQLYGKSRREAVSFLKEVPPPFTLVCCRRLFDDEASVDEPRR

Sequence of GRID2IP_2, A4D2P6 (A4D2P6 272-370): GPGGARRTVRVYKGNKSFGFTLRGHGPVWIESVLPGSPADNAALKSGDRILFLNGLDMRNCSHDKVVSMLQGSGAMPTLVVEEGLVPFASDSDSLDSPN
Sequence of GRIP2_4, Q9C0E4 (Q9C0E4 446-548): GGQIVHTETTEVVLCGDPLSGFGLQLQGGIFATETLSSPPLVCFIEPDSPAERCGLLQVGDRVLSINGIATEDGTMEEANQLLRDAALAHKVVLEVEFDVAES
Sequence of Inadl_6, Q8NI35 (Q8NI35 1058-1167): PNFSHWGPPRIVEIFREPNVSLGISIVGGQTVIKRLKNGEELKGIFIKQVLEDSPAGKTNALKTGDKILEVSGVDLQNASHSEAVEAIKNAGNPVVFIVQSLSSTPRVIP
Sequence of HTRA1, Q92743 (Q92743 360-477): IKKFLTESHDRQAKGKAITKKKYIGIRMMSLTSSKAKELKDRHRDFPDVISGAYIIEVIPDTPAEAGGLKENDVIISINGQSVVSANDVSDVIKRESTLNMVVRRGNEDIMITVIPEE
Sequence of SCRIB_2, Q14160 (Q14160 857-960): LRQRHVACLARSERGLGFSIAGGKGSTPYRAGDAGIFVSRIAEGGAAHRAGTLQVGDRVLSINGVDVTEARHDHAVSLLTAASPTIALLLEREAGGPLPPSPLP
Sequence of MAST1, Q9Y2H9 (Q9Y2H9 962-1065): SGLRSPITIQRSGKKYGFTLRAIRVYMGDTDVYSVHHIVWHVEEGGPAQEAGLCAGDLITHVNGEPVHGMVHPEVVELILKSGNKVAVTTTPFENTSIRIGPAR
Sequence of MAGI2_6, Q86UL8 (Q86UL8 1141-1229): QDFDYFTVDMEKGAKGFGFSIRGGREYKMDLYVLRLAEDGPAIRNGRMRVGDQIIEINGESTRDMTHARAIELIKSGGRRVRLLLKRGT
Sequence of PDLIM1, O00151 (O00151 1-87): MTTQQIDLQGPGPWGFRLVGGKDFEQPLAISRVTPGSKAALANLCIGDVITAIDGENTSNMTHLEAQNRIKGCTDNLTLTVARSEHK
Sequence of MAGI2_5, Q86UL8 (Q86UL8 915-1017): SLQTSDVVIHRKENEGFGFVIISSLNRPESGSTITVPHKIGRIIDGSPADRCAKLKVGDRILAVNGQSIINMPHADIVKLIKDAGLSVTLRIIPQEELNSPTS
Sequence of DLG5_1, Q8TDM6 (Q8TDM6 617-713): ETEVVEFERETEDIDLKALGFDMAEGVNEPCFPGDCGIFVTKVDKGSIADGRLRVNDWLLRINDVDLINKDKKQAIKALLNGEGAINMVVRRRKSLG

| Binder | pKd (MAGI2_5, Q86UL8) | pKd (APBA3_1, O96018) | pKd (DLG3_1, Q92796) | pKd (DVL3, Q92997) | pKd (Inadl_6, Q8NI35) | pKd (SCRIB_2, Q14160) | pKd (TJP3_3, O95049) | pKd (PDZD7_3, Q9H5P4) | pKd (HTRA1, Q92743) | pKd (GRIP2_4, Q9C0E4) | pKd (MAGI2_6, Q86UL8) | pKd (APBA2_2, Q99767) | pKd (SNTA1, Q13424) | pKd (MAST1, Q9Y2H9) | pKd (PDLIM1, O00151) | pKd (SNTB1, Q13884) | pKd (SYNJ2BP, P57105) | pKd (SIPA1L2, Q9P2F8) | pKd (GRID2IP_2, A4D2P6) | pKd (CARD11, Q9BXL7) | also measured |
| --- | --- | --- | --- | --- | --- | --- | --- | --- | --- | --- | --- | --- | --- | --- | --- | --- | --- | --- | --- | --- | --- |
| HSGYRLNDYV [CLDN14, O95500] | below the threshold | below the threshold | below the threshold | 3.66 | below the threshold | below the threshold | 4.28 | 4.19 | 4.34 | below the threshold | 4.12 | below the threshold | below the threshold | below the threshold | below the threshold | 3.54 | 3.63 | below the threshold | 3.63 | below the threshold | pKd (GRIP1_5, Q9Y3R0): below the threshold; pKd (SHANK1, Q9Y566): below the threshold; pKd (DLG1_1, Q12959): below the threshold; pKd (DLG5_1, Q8TDM6): below the threshold; pKd (Inadl_4, Q8NI35): below the threshold |
| TLPRKRMSSI [GPRC6A, Q5T6X5] | below the threshold | below the threshold | below the threshold | below the threshold | below the threshold | below the threshold | below the threshold | below the threshold | below the threshold | below the threshold | below the threshold | below the threshold | below the threshold | 3.6 | below the threshold | below the threshold | below the threshold | below the threshold | 3.87 | below the threshold | pKd (GRIP1_5, Q9Y3R0): below the threshold; pKd (SHANK1, Q9Y566): below the threshold; pKd (DLG1_1, Q12959): below the threshold; pKd (DLG5_1, Q8TDM6): below the threshold; pKd (Inadl_4, Q8NI35): below the threshold |
| KKMPSIESDV [GRIN2A, Q12879] | below the threshold | below the threshold | 4.35 | below the threshold | below the threshold | 4.43 | below the threshold | below the threshold | below the threshold | below the threshold | 4.91 | below the threshold | 4.59 | below the threshold | 3.93 | 4.69 | 4.85 | below the threshold | 3.59 | below the threshold | pKd (GRIP1_5, Q9Y3R0): below the threshold; pKd (SHANK1, Q9Y566): below the threshold; pKd (DLG1_1, Q12959): 4.75; pKd (DLG5_1, Q8TDM6): below the threshold; pKd (Inadl_4, Q8NI35): below the threshold |

Second part, led by results:

| pKd (MAGI2_5, Q86UL8) | pKd (APBA3_1, O96018) | pKd (DLG3_1, Q92796) | pKd (DVL3, Q92997) | pKd (Inadl_6, Q8NI35) | pKd (SCRIB_2, Q14160) | pKd (TJP3_3, O95049) | pKd (PDZD7_3, Q9H5P4) | pKd (HTRA1, Q92743) | pKd (GRIP2_4, Q9C0E4) | pKd (MAGI2_6, Q86UL8) | pKd (APBA2_2, Q99767) | pKd (SNTA1, Q13424) | pKd (MAST1, Q9Y2H9) | pKd (PDLIM1, O00151) | pKd (SNTB1, Q13884) | pKd (SYNJ2BP, P57105) | pKd (SIPA1L2, Q9P2F8) | pKd (GRID2IP_2, A4D2P6) | pKd (CARD11, Q9BXL7) | Binder | also measured |
| --- | --- | --- | --- | --- | --- | --- | --- | --- | --- | --- | --- | --- | --- | --- | --- | --- | --- | --- | --- | --- | --- |
| 4.36 | below the threshold | 4.19 | below the threshold | 3.55 | 4.1 | below the threshold | 5.04 | 4.62 | below the threshold | 3.81 | below the threshold | 5.04 | 3.9 | below the threshold | 4.95 | 4.55 | below the threshold | below the threshold | below the threshold | TACCHSETVV [TGFA, P01135] | pKd (GRIP1_5, Q9Y3R0): below the threshold; pKd (SHANK1, Q9Y566): below the threshold; pKd (DLG1_1, Q12959): 4.56; pKd (DLG5_1, Q8TDM6): below the threshold; pKd (Inadl_4, Q8NI35): below the threshold |
| below the threshold | below the threshold | below the threshold | below the threshold | below the threshold | below the threshold | below the threshold | below the threshold | below the threshold | below the threshold | below the threshold | below the threshold | below the threshold | below the threshold | below the threshold | below the threshold | below the threshold | below the threshold | below the threshold | below the threshold | TSSMRGMDAV [RSRC2, Q7L4I2] | pKd (GRIP1_5, Q9Y3R0): below the threshold; pKd (SHANK1, Q9Y566): below the threshold; pKd (DLG1_1, Q12959): below the threshold; pKd (DLG5_1, Q8TDM6): below the threshold; pKd (Inadl_4, Q8NI35): below the threshold |
